Data published in publication PMC5433940 (Chembiochem : a European journal of chemical biology, 2016).
Ends that are not written are not given here.

T1: p32 protein (Homo sapiens, UniProt Q07021)
T1 sequence (Q07021 74-282): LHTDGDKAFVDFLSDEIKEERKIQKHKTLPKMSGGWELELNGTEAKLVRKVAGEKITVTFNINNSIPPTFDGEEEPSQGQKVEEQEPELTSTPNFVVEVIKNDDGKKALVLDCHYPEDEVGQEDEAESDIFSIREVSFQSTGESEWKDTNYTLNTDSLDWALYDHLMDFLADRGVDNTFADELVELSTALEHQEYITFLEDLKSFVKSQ

T2: recombinant 6x-His-tagged p32 protein (p32/gC1qR) (UniProt Q07021 74-282)
T2 sequence (looked up): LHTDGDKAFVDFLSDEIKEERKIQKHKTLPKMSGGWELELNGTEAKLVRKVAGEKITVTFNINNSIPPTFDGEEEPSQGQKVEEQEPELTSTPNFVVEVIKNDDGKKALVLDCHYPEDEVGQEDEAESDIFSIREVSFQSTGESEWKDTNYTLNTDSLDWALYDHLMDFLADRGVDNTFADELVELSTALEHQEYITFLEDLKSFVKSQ


What was measured:
p32 protein = target: T1, p32 protein; test: Binding of peptide-displaying T7 phage clones to immobilized p32 protein; conditions: peptide displayed on T7 phage; compared to LyP-1 phage
[1] = target: recombinant 6x-His-tagged p32 protein (p32/gC1qR) (UniProt Q07021); test: AUC
[2] = target: T2, recombinant 6x-His-tagged p32 protein …; test: fluorescence polarisation

| Molecule | phage binding to p32 (p32 protein) | further results |
| --- | --- | --- |
| CTRGSRSKC | greatly improved binding to p32 compared to LyP-1 phage |  |
| CKRGNRSMC | greatly improved binding to p32 compared to LyP-1 phage |  |
| recombinant 6x-His-tagged p32 protein (p32/gC1qR) (from UniProt Q07021 74-282) (natural protein; other documents disagree on this pair) |  | stoichiometry N [1]: 3 |
| CGNKRTRGC (cysteine pairing not given here; also: FAM label, position not given here) [FAM-labeled LyP-1 peptide (CGNKRTRGC)] |  | Kd [2]: > 23 µM |
